Assays:
[1] = target: T1, HLA-DR11 (DRB1*1101), purified (human); assay: competition on purified HLA-DR (DRB1*1101); ratio to reference peptide HA 306-318
T1 construct: mature

[2] = target: T2, HLA-DR1 (DRB1*0101), purified (human); assay: competition on purified HLA-DR (DRB1*0101); ratio to reference peptide HA 306-318
T2 construct: mature

[3] = target: T3, HLA-DRB5 (DRB5*0101), purified (human); assay: competition on purified HLA-DR (DRB5*0101); ratio to reference peptide HA 306-318
T3 construct: mature

[4] = target: T4, HLA-DR13 (DRB1*1301), purified (human); assay: competition on purified HLA-DR (DRB1*1301) against biotinylated B1 21-36 (200 nM, pH 4.5); fluorescence assay
T4 construct: mature

[5] = target: T5, HLA-DR7 (DRB1*0701), purified (human); assay: competition on purified HLA-DR (DRB1*0701) against biotinylated YKL (10 nM, pH 5); fluorescence assay
T5 construct: mature

[6] = target: T6, HLA-DR4 (DRB1*0401), purified (human); assay: competition on purified HLA-DR (DRB1*0401) against biotinylated HA 306-318 (30 nM, pH 6); fluorescence assay
T6 construct: mature

[7] = target: T7, HLA-DR15 (DRB1*1501), purified (human); assay: competition on purified HLA-DR (DRB1*1501) against biotinylated A3 152-166 (10 nM, pH 4.5); fluorescence assay
T7 construct: mature

[8] = target: T8, HLA-DR3 (DRB1*0301), purified (human); assay: competition on purified HLA-DR (DRB1*0301) against biotinylated MT 2-16 (100 nM, pH 4.5); fluorescence assay
T8 construct: mature

[9] = target: T9, HLA-DRB3 (DRB3*0101), purified (human); assay: competition on purified HLA-DR (DRB3*0101) against biotinylated LOL 191-210 (5 nM, pH 5.5); fluorescence assay
T9 construct: mature

[10] = target: T5, HLA-DR7 (DRB1*0701), purified; assay: competition on purified HLA-DR (DRB1*0701); ratio to reference peptide YKL
[11] = target: HLA-DRB4, purified (human); assay: competition on purified HLA-DR (DRB4); ratio to a reference peptide that is not named
[12] = target: T2, HLA-DR1 (DRB1*0101), purified; assay: competition on purified HLA-DR (DRB1*0101) against biotinylated HA 306-318 (1 nM, pH 6); fluorescence assay
[13] = target: T3, HLA-DRB5 (DRB5*0101), purified; assay: competition on purified HLA-DR (DRB5*0101) against biotinylated HA 306-318 (5 nM, pH 5.5); fluorescence assay
[14] = target: T7, HLA-DR15 (DRB1*1501), purified; assay: competition on purified HLA-DR (DRB1*1501); ratio to reference peptide A3 152-166
[15] = target: T1, HLA-DR11 (DRB1*1101), purified; assay: competition on purified HLA-DR (DRB1*1101) against biotinylated HA 306-318 (20 nM, pH 5); fluorescence assay
[16] = target: T6, HLA-DR4 (DRB1*0401), purified; assay: competition on purified HLA-DR (DRB1*0401); ratio to reference peptide HA 306-318
[17] = target: HLA-DRB4, purified (human); assay: competition on purified HLA-DR (DRB4); labelled peptide not named; fluorescence assay

B1: peptide MAGE-3 267-282 (ACYEFLWGPRALVETS) (peptide)
peptide: ACYEFLWGPRALVETS
**Q.** With B1 as the binder, how does the “Ratios IC50 MAGE-3/IC50 reference” value [1] read?
**A.** 6

**Q.** And the “Ratios IC50 MAGE-3/IC50 reference” value [2]?
**A.** 0.2

**Q.** And the “Ratios IC50 MAGE-3/IC50 reference” value [3]?
**A.** 11

**Q.** What about the IC50 [4] of the same binder?
**A.** > 10000 nM

**Q.** And the IC50 [5]?
**A.** 1200 nM

**Q.** And the IC50 [6]?
**A.** 730 nM

**Q.** What about the IC50 [7] of the same binder?
**A.** 220 nM

**Q.** What about the IC50 [8] of the same binder?
**A.** > 10000 nM

**Q.** And the IC50 [9]?
**A.** > 10000 nM

**Q.** What about the “Ratios IC50 MAGE-3/IC50 reference” value [10] of the same binder?
**A.** 120

**Q.** What about the “Ratios IC50 MAGE-3/IC50 reference” value [11] of the same binder?
**A.** 70

**Q.** What about the IC50 [12] of the same binder?
**A.** 0.4 nM

**Q.** What about the IC50 [13] of the same binder?
**A.** 170 nM

**Q.** And the “Ratios IC50 MAGE-3/IC50 reference” value [14]?
**A.** 15

**Q.** What about the IC50 [15] of the same binder?
**A.** 150 nM

**Q.** And the “Ratios IC50 MAGE-3/IC50 reference” value [16]?
**A.** 18

**Q.** What about the IC50 [17] of the same binder?
**A.** 2800 nM

Reference: patent publication US20040077045A1 (LUDWIG INSTITUTE FOR CANCER RESEARCH, published 2004)
